In patent US6867011B1, “Synthetic bioepitope compounds which can be used as standards in the biological assays of Troponin I” (Bio-Rad Pasteur, priority 1996, dated 2005):

Key:
[1] = Tests of stability of compound 10 solutions stored at +4° C., assayed periodically with the troponin I kit; type: physicochemical; conditions: buffer solutions stored at +4° C.
Procedure: A compound according to the invention (compound 10) was diluted in water (C=2 mg/ml). From this “stock” solution, four “working” solutions S1, S2, S3 and S4 are obtained.
To carry out the various dilutions, a 0.1 M sodium succinate buffer solution (pH=6) containing Kathon (0.2%), Re gilait (0.05%) and 2 mM EDTA was used for solutions S1 (C=0.5 ng/ml) and S2 (C=1 ng/ml).
Solutions S3 (C=0.5 ng/ml) and S4 (C=1 ng/ml) were obtained by diluting the “stock” solution with phosphate buffer (KH2PO4/K2HPO4 pH=7.5) containing Kathon (0.2%), Régilait (0.05%) and 2 mM EDTA.
Solutions S1, S2, S3 and S4 were assayed, according to the protocol described in Example 2, on D0 (day of preparation of the solutions). The values obtained served as reference for monitoring stability.
Next, solutions S1, S2, S3 and S4 were stored at +4° C. and assayed periodically. During each series of assays, three “control solutions” were used. They are the freeze-dried troponin I control sera distributed in the assay measuring range. […] During each stability test, it was checked that each of the controls tested was obtained at its target concentration. This therefore made it possible to compare the concentrations obtained for the peptides during the various tests. […]

[2] = type: physicochemical
Procedure: This stability study was validated with the aid of compound 6 stored at -20° C. and used as reference. It was checked beforehand that compound 6 is stable when stored at -20° C. for at least 18 months.

Substance	Stability of the solutions [1]	Duration stable when stored at −20° C. [2]
Ac-Asn Tyr Arg Ala Tyr Ala Thr Glu Pro His Ala Lys Lys Lys Ser Lys Gln Lys Met Gln Ala Met Met Gln Ala Leu Leu Gly Ala Arg Ala Lys Glu-NH2 (Ac-NYRAYATEPHAKKKSKQKMQAMMQALLGARAKE-NH2) [Compound 10, Ia with Ξ = Ac-NYRAYA-, Z = -AKKKSK-(QKMQ)1-AMMQA-, Ψ = -AKE-NH2]	excellent stability	–
Ac-Gly Asn Tyr Arg Ala Tyr Ala Thr Glu Pro His Ala Lys Lys -NH-(CH2)5-CO-Ala Met Met Gln Ala Leu Leu Gly Ala Arg Ala Lys Glu-NH2 [Compound 6]	–	at least 18 months
